Experimental data taken from patent US20230295310A1 (ABCELLERA BIOLOGICS, published 2023).
Positions count from the first letter of the chain named.

B1: GOMP001_bsAb_038 (bispecific antibody, human IgG1, kappa, L234A L235A)
heavy 1: EVQLVESGGVLVKTGGSLRLSCVASGFSFKKAWMNWVRKAPGKGLEWVGRIKRNSDGGAADYAAEVKDRFTLSRDDSKNTLYLQMNSLKTEDTAVYYCTTLDSSSWYVGYYYMDVWGKGTTVTVSSASTKGPSVFPLAPSSKSTSGGTAALGCLVADYFPEPVTVSWNSGALTSGVHTFPAVLQSSGLYSLSSVVTVPSSSLGTQTYICNVNHKPSNTKVDEKVEPKSCDKTHTCPPCPAPEAAGGPSVFLFPPKPKDTLMISRTPEVTCVVVDVSHEDPEVKFNWYVDGVEVHNAKTKPREEQYNSTYRVVSVLTVLHQDWLNGKEYKCKVSNKALPAPIEKTISKAKGQPREPQVYTLPPSREEMTDNQVSLTCLVKGFYPSDIAVEWESNGQPENNYKTTPPVLMSDGSFFLASKLTVDKSRWQQGNVFSCSVMHEALHNHYTQKSLSLSPG
light 1: RIHMTQSPSSVSASLGDRVTFTCRASQNINNWLAWYQDKPGKAPKLLIYTASSLQSGVPSRFSGSGSGTDFTLTISSLQPDDFATYYCQQAHSLPITFGQGTRLGIKRTVAAPSVFIFPPSDKQLKSGTARVVCLLNNFYPREAKVQWKVDNALQSGNSQESVTEQDSKDSTYSLSSTLTLSKADYEKHKVYACEVTHQGLSSPVTKSFNRGEC
heavy 2: QVQLVQSGAEVKKPGASVKVSCKASGYTFTSHWMHWVRYAPGQGLEWIGEFNPSNGRTNYNEKFKSKATMTVDTSTNTAYMELSSLRSEDTAVYYCASRDYDYDGRYFDYWGRGTLVTVSSASTKGPSVFPLAPSSKSTSGGTAALGCLVKDYFPEPVTVSWNSGALTSGVHTFPAVLQSSGLYSLSSVVTVPSSSLGTQTYICNVNHKPSNTKVDKKVEPKSCDKTHTCPPCPAPEAAGGPSVFLFPPKPKDTLMISRTPEVTCVVVDVSHEDPEVKFNWYVDGVEVHNAKTKPREEQYNSTYRVVSVLTVLHQDWLNGKEYKCKVSNKALPAPIEKTISKAKGQPRRPRVYTLPPSREEMTKNQVSLVCLVKGFYPSDIAVEWESNGQPENNYKTTPPVLDSDGSFFLYSVLTVDKSRWQQGNVFSCSVMHEALHNHYTQKSLSLSPG
light 2: DIQMTQSPSSLSASVGDRVTITCSASSSVTYMYWYQRKPGDAPKLLIYDTSNLASGVPSRFSGSGSGTDYTFTISSLQPEDIATYYCQQWSSHIFTFGQGTKVEIKRTVAAPSVFIFPPSDEQLKSGTASVVCLLNNFYPREAKVQWKVDNALQSGNSQESVTEQDSKDSTYSLSSTLTLSKADYEKHKVYACEVTHQGLSSPVTKSFNRGEC
B2: GOMP001_bsAb_039 (bispecific antibody, human IgG1, kappa, L234A L235A)
heavy 1: QVQLVQSGAEVKKPGASVKVSCKASGYTFTSHWMHWVRKAPGQGLEWIGEFNPSNGRTNYNEEFKSKATMTVDTSTNTAYMELSSLRSEDTAVYYCASRDYDYDGRYFDYWGQGTLVTVSSASTKGPSVFPLAPSSKSTSGGTAALGCLVADYFPEPVTVSWNSGALTSGVHTFPAVLQSSGLYSLSSVVTVPSSSLGTQTYICNVNHKPSNTKVDEKVEPKSCDKTHTCPPCPAPEAAGGPSVFLFPPKPKDTLMISRTPEVTCVVVDVSHEDPEVKFNWYVDGVEVHNAKTKPREEQYNSTYRVVSVLTVLHQDWLNGKEYKCKVSNKALPAPIEKTISKAKGQPREPQVYTLPPSREEMTDNQVSLTCLVKGFYPSDIAVEWESNGQPENNYKTTPPVLMSDGSFFLASKLTVDKSRWQQGNVFSCSVMHEALHNHYTQKSLSLSPG
light 1: B1 light 2 with D1R, R37D, D41K, E122K, S130R
heavy 2: EVQLVESGGGLVKTGGSHRLSCVASGFSFKKAWMNWVRYAPGKGLEWVGRIKRNSDGGTTDYAARVKGRFILSRDDSKNTLYLQMNSLKTEDTAVYYCTTLDSSSWYVGYYYMDVWGRGTTVTVSSASTKGPSVFPLAPSSKSTSGGTAALGCLVKDYFPEPVTVSWNSGALTSGVHTFPAVLQSSGLYSLSSVVTVPSSSLGTQTYICNVNHKPSNTKVDKKVEPKSCDKTHTCPPCPAPEAAGGPSVFLFPPKPKDTLMISRTPEVTCVVVDVSHEDPEVKFNWYVDGVEVHNAKTKPREEQYNSTYRVVSVLTVLHQDWLNGKEYKCKVSNKALPAPIEKTISKAKGQPRRPRVYTLPPSREEMTKNQVSLVCLVKGFYPSDIAVEWESNGQPENNYKTTPPVLDSDGSFFLYSVLTVDKSRWQQGNVFSCSVMHEALHNHYTQKSLSLSPG
light 2: DIQMTQSPSSVSASVGDRVTITCRASQDINNWLAWYQRKPGDAPKILIYTASNLQSGVPSRFSGSGSGTDFTLTISSLQPEDFATYFCQQAHSLPITFGQGTRLEIKRTVAAPSVFIFPPSDEQLKSGTASVVCLLNNFYPREAKVQWKVDNALQSGNSQESVTEQDSKDSTYSLSSTLTLSKADYEKHKVYACEVTHQGLSSPVTKSFNRGEC
B3: GOMP001_bsAb_041 (bispecific antibody, human IgG1, kappa, L234A L235A)
heavy 1: B2 heavy 1
light 1: B1 light 2 with D1R, R37D, D41K, E122K, S130R
heavy 2: B2 heavy 2 with H18L, S55T, T59P, T60A, I71T, N79K
light 2: B2 light 2 with T20I, Q37L, K39R, I46L, T50A, N53S, S76G, F87Y, K107Q
B4: GOMP001_bsAb_040 (bispecific antibody, human IgG1, kappa, L234A L235A)
heavy 1: B1 heavy 1 with V10G, L18H, A59T, A60T, D68G, T71I
light 1: B2 light 2 with D1R, R38D, D42K, E123K, S131R
heavy 2: B1 heavy 2
light 2: B1 light 2
B5: GOMP001_bsAb_042 (bispecific antibody, human IgG1, kappa, L234A L235A)
heavy 1: B1 heavy 1 with V10G, S55T, A59P, D68G, N79K
light 1: RIQMTQSPSSVSASVGDRVIITCRASQDINNWLAWYLDRPGKAPKLLIYAASSLQSGVPSRFSGSGSGTDFTLTIGSLQPEDFATYYCQQAHSLPITFGQGTRLEIQRTVAAPSVFIFPPSDKQLKSGTARVVCLLNNFYPREAKVQWKVDNALQSGNSQESVTEQDSKDSTYSLSSTLTLSKADYEKHKVYACEVTHQGLSSPVTKSFNRGEC
heavy 2: B1 heavy 2
light 2: B1 light 2

These binders were tested against EGFR on HeLa cells (UniProt P00533 25-1210, limits assumed) (assay: cell-based or functional assay).

X… HeLa EC50 [pM]	Binder	Max killing % [%]
33.1	B1	93.6
374	B2	81.1
449	B3	78.6
39.1	B4	89.5
34.1	B5	84.8
